How the values were obtained:
Format in all cases: biochemical
[1] = HTP-analysis of supernatants pretreated with base (MUGal hydrolysis); settings: activity of the variant/activity of Rd7BB (SEQ ID NO: 44); challenge at pH 7.5
Summary of the method: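 Fluorescence of released 4-MU (Ex 355 nm, Em 448 nm) after carbonate quench reports MUGal hydrolysis by GLA variants secreted from INVSc1 yeast. Before the acidic (pH 4.3-4.8) 30-180 min reaction at 37° C, supernatants had been pre-incubated at pH 7.0-9.7 for 1-18 h at 37° C.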

[2] = HTP-analysis of yeast culture supernatants, no challenge (MUGal hydrolysis); settings: activity of the variant/activity of Rd7BB (SEQ ID NO: 44)
Summary of the method: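 GLA variants were expressed in INVSc1 yeast grown in SD-Ura broth with glucose at 30° C., and culture supernatants were collected after 66-84 h. Supernatant was mixed with McIlvaine buffer pH 4.8 and MUGal (2 mM stock) in 50 mM citrate, 200 mM KCl, pH 4.6, incubated at 37° C. for 30-180 minutes, then quenched with sodium carbonate.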

[3] = HTP-analysis of supernatants pretreated with acid (MUGal hydrolysis); settings: activity of the variant/activity of Rd7BB (SEQ ID NO: 44); challenge at pH 3.5
Summary of the method: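 Supernatants from INVSc1 yeast secreting GLA variants were challenged at 37° C. for 1-3 h in McIlvaine buffer at pH 3.3-4.3. Residual activity was then measured on 4 mM MUGal substrate stock at pH 4.8 with citrate buffer pH 4.3, over 30-180 min at 37° C. Reactions were quenched with sodium carbonate and read by fluorescence (Ex 355/Em 448 nm).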

B1: 680 (protein)
chain: LDNGLARTPPMGWLHWERFMCNLDCQEEPDSCISEKLFEEMAERMVTEGWKDAGYEYLCIDDCWMAPQRDSEGRLQADPQRFPHGIRQLANHVHSKGLKLGIYADVGNKTCAGFPGSFGYYDIDAQTFADWGVDLLKFDGCYCDSLENLADGYKHMSLALNRTGRPIVYSCEWPLYMWPFQKPNYTEIRQYCNHWRNFADIDDSWASIKSILDWTSRNQERIVDVAGPGGWNDPDMLVIGNFGLSWDQQVTQMALWAIMAAPLFMSNDLRAISPQAKALLQDKDVIAINQDPLGKQGYQLRKGDNFEVWERPLSGDAWAVAIINRQEIGGPRSYTIPVASLGKGVACNPACFITQLLPVKRQLGFYNWTSRLKSHINPTGTVLLQLENTMQTSLKDLL
modifications: Synthetic Polypeptide sequence of Variant No. 680 of mature Human GLA
Q: With B1 as the molecule, how does the “Relative Activity of GLA Variants After Challenge at pH 7.5” value (“Relative Activity … at pH 7.5” for short) [1] read?
A: Its value is “+ (>0.5 to 1.5 relative activity over Rd7BB (SEQ ID NO: 44))”.

Q: What about the “Relative Activity of GLA Variants After No Challenge (NC)” value [2] of the same molecule?
A: Its value is “+ (>0.5 to 1.5 relative activity over Rd7BB (SEQ ID NO: 44))”.

Q: And the “Relative Activity of GLA Variants After Challenge at pH 3.5” value (“Relative Activity … at pH 3.5” for short) [3]?
A: Its value is “+ (>0.5 to 1.5 relative activity over Rd7BB (SEQ ID NO: 44))”.

B2: 681 (protein)
chain: LDNGLAPTPTMGWLHWERFMCNLDCQEEPDSCISEKLFMEMAERMVTEGWKDAGYEYLCIDDCWMAPQRDSEGRLQADPQRFPHGIRQLANHVHSKGLKLGIYADVGNKTCAGFPGSFGYYDIDAQTFADWGVDLLKFDGCYCDSLENLADGYKHMSLALNRTGRPIVYSCEWPLYMWPFQKPNYTEIRQYCNHWRNFADIDDSWASIKSILDWTSRNQERIVDVAGPGGWNDPDMLVIGNFGLSWDQQVTQMALWAIMAAPLFMSNDLRAISPQAKALLQDKDVIAINQDPLGKQGYQLRKGDNFEVWERPLSGDAWAVAIINRQEIGGPRSYTIPVASLGKGVACNPACFITQLLPVKRQLGFYNWTSRLKSHINPTGTVLLQLENTMQTSLKDLL
modifications: Synthetic Polypeptide sequence of Variant No. 681 of mature Human GLA
Q: Which “Relative Activity … at pH 7.5” value [1] does the source give for B2 here?
A: Its value is “− (<0.5 relative activity to Rd7BB (SEQ ID NO: 44))”.

Q: And the “Relative Activity of GLA Variants After No Challenge (NC)” value [2]?
A: Its value is “− (<0.5 relative activity to Rd7BB (SEQ ID NO: 44))”.

Q: And the “Relative Activity … at pH 3.5” value [3]?
A: The value was “− (<0.5 relative activity to Rd7BB (SEQ ID NO: 44))”.

B3: 682 (protein)
chain: LDNGLARTPTMGWLHWERFMCNLDCQEEPDSCISEKLFMEMAERMVTEGWKDAGYEYLCIDDCWMAPQRDSEGRLQADPQRFPHGIRQLANHVHSKGLKLGIYADVGNKTCAGFPGSFGYYDIDAQTFADWGVDLLKFDGCYCDSLENLADGYKHMSLALNRTGRPIVYSCEWPLYMWPFQKPNYTEIRQYCNHWRNFADIDDSWASIKSILDWTSRNQERIVDVAGPGGWNDPDMLVIGNFGLSWDQQVTQMALWAIMAAPLFMSNDLRAISPQAKALLQDKDVIAINQDPLGKQGYQLRKGDNFEVWERPLSGYAWAVAIINRQEIGGPRSYTIPVASLGKGVACNPACFITQLLPVKRQLGFYNWTSRLKSHINPTGTVLLQLENTMQTSLKDLL
modifications: Synthetic Polypeptide sequence of Variant No. 682 of mature Human GLA
Q: With B3 as the molecule, how does the “Relative Activity … at pH 7.5” value [1] read?
A: The value was “+ (>0.5 to 1.5 relative activity over Rd7BB (SEQ ID NO: 44))”.

Q: And the “Relative Activity of GLA Variants After No Challenge (NC)” value [2]?
A: The value was “+ (>0.5 to 1.5 relative activity over Rd7BB (SEQ ID NO: 44))”.

Q: And the “Relative Activity … at pH 3.5” value [3]?
A: Its value is “+ (>0.5 to 1.5 relative activity over Rd7BB (SEQ ID NO: 44))”.

B4: 683 (protein)
chain: LDNGLARTPTMGWLHWERFMCNLDCQEEPDSCISEKLFEEMADRMVTEGWKDAGYEYLCIDDCWMAPQRDSEGRLQADPQRFPHGIRQLANHVHSKGLKLGIYADVGNKTCAGFPGSFGYYDIDAQTFADWGVDLLKFDGCYCDSLENLADGYKHMSLALNRTGRPIVYSCEWPLYMWPFQKPNYTEIRQYCNHWRNFADIDDSWASIKSILDWTSRNQERIVDVAGPGGWNDPDMLVIGNFGLSPDQQVTQWALWAIMAAPLFMSNDLRAIDPQAKALLQDKDVIAINQDPLGKQGYQLRKGDNFEVWERPLSGDAWAVAIINRQEIGGPRSYTIPVASLGKGVACNPACFITQLLPVKRQLGFYNATSRLKSHINPTGTVLLQLENTMQTSLKDLL
modifications: Synthetic Polypeptide sequence of Variant No. 683 of mature Human GLA
Q: What does the source list for B4?
A: Relative Activity of GLA Variants After Challenge at pH 7.5 [1]: − (<0.5 relative activity to Rd7BB (SEQ ID NO: 44)); Relative Activity of GLA Variants After No Challenge (NC) [2]: + (>0.5 to 1.5 relative activity over Rd7BB (SEQ ID NO: 44)); Relative Activity of GLA Variants After Challenge at pH 3.5 [3]: + (>0.5 to 1.5 relative activity over Rd7BB (SEQ ID NO: 44))

B5: 684 (protein)
chain: LDNGLARTPTMGWLHWERFMCNLDCQEEPDSCISEKLFMEMAERMVTEGWKDAGYEYLCIDDCWMAPQRDSEGRLQADPQRFPHGIRQLANHVHSKGLKLGIYADVGNKTCAGFPGSFGYYDIDAQTFADWGVDLLKFDGCYCDSLENLADGYKHMSLALNRTGRPIVYSCEWPLYMWPFQKPNYTEIRQYCNHWRNFADIDDSWASIKSILDWTSRNQERIVDVAGPGGWNDPDMLVIGNFGLSWDQQVTQMALWAIMAAPLFMSNDLRAISPQAKALLQDKDVIAINQDPLGKQGYQLRKGDNFEVWERPLSGDAWAVAIINRQEIGGPRSYTIPVASLGKGVACNPACFITQLLPVKRQLGFYNATSRLKSHINPTGTVLLQLENTMQTSLKDLL
modifications: Synthetic Polypeptide sequence of Variant No. 684 of mature Human GLA
Q: What does the source list for B5?
A: Relative Activity of GLA Variants After Challenge at pH 7.5 [1]: + (>0.5 to 1.5 relative activity over Rd7BB (SEQ ID NO: 44)); Relative Activity of GLA Variants After No Challenge (NC) [2]: + (>0.5 to 1.5 relative activity over Rd7BB (SEQ ID NO: 44)); Relative Activity of GLA Variants After Challenge at pH 3.5 [3]: + (>0.5 to 1.5 relative activity over Rd7BB (SEQ ID NO: 44))

B6: 685 (protein)
chain: LDNGLARTPTMGWLHWERFMCNLDCQEEPDSCISEKLFMEMADRMVTEGWKDAGYEYLCIDDCWMAPQRDSEGRLQADPQRFPHGIRQLANHVHSKGLKLGIYADVGNKTCAGFPGSFGYYDIDAQTFADWGVDLLKFDGCYCDSLENLADGYKHMSLALNRTGRPIVYSCEWPLYMWPFQKPNYTEIRQYCNHWRNFADIDDSWASIKSILDWTSRNQERIVDVAGPGGWNDPDMLVIGNFGLSWDQQVTQWALWGIMAAPLFMSNDLRAISPQAKALLQDKDVIAINQDPLGKQGYQLRKGDLFEVWERPLSGDAWAVAIINRQEIGGPRSYTIPVASLGKGVACNPACFITQLLPVKRQLGFYNATSRLKSHINPTGTVLLQLENTMQTSLKDLL
modifications: Synthetic Polypeptide sequence of Variant No. 685 of mature Human GLA
Q: For B6, which “Relative Activity … at pH 7.5” value [1] is on record?
A: The value was “− (<0.5 relative activity to Rd7BB (SEQ ID NO: 44))”.

Q: What about the “Relative Activity of GLA Variants After No Challenge (NC)” value [2] of the same molecule?
A: Its value is “+ (>0.5 to 1.5 relative activity over Rd7BB (SEQ ID NO: 44))”.

Q: What about the “Relative Activity … at pH 3.5” value [3] of the same molecule?
A: The value was “− (<0.5 relative activity to Rd7BB (SEQ ID NO: 44))”.

B7: 641 (protein)
chain: LDNGLARTPPMGWLHWERFMCNLDCQEEPDSCISEKLFEEMAERMVTEGWKDAGYEYLCIDDCWMAPQRDSEGRLQADPQRFPHGIRQLANHVHSKGLKLGIYADVGNKTCAGFPGSFGYYDIDAQTFADWGVDLLKFDGCYCDSLENLADGYKHMSLALNRTGRPIVYSCEWPLYMWPFQKPNYTEIRQYCNHWRNFADIDDSWASIKSILDWTSRNQERIVDVAGPGGWNDPDMLVIGNFGLSWDQQVTQMALWAIMAAPLFMPNDLRAISPQAKALLQDKDVIAINQDPLGKQGYQLRKGDNFEVWERPLSGDAWAVAIINRQEIGGPRSYTIPVASLGKGVACNPACFITQLLPVKRQLGFYNWTSRLKSHINPTGTVLLQLENTMQTSLKDLL
modifications: Synthetic Polypeptide sequence of Variant No. 641 of mature Human GLA
Q: Which “Relative Activity … at pH 7.5” value [1] does the source give for B7 here?
A: Its value is “− (<0.5 relative activity to Rd7BB (SEQ ID NO: 44))”.

Q: What about the “Relative Activity of GLA Variants After No Challenge (NC)” value [2] of the same molecule?
A: Its value is “− (<0.5 relative activity to Rd7BB (SEQ ID NO: 44))”.

Q: What about the “Relative Activity … at pH 3.5” value [3] of the same molecule?
A: Its value is “− (<0.5 relative activity to Rd7BB (SEQ ID NO: 44))”.

B8: 687 (protein)
chain: LDNGLARTPTMGWLHWERFMCNLDCQEEPDSCISEKLFMEMAERMVTEGWKDAGYEYLCIDDCWMAPQRDSEGRLQADPQRFPHGIRQLANHVHSKGLKLGIYADVGNKTCAGFPGSFGYYDIDAQTFADWGVDLLKFDGCYCDSLENLADGYKHMSLALNRTGRPIVYSCEWPLYMWPFQKPNYTEIRQYCNHWRNFADIDDSWASIKSILDWTSRNQERIVDVAGPGGWNDPDMLVIGNFGLSWDQQVTQMALWAIMAAPLFMSNDLRAISPQAKALLQDKDVIAINRDPLGKQGYQLRKGDNFEVWERPLSGDAWAVAIINRQEIGGPRSYTIPVASLGKGVACNPACFITQLLPVKRQLGFYNATSRLKSHINPTGTVLLQLENTMQTSLKDLL
modifications: Synthetic Polypeptide sequence of Variant No. 687 of mature Human GLA
Q: Which “Relative Activity … at pH 7.5” value [1] does the source give for B8 here?
A: Its value is “− (<0.5 relative activity to Rd7BB (SEQ ID NO: 44))”.

Q: And the “Relative Activity of GLA Variants After No Challenge (NC)” value [2]?
A: The value was “+ (>0.5 to 1.5 relative activity over Rd7BB (SEQ ID NO: 44))”.

Q: What about the “Relative Activity … at pH 3.5” value [3] of the same molecule?
A: Its value is “− (<0.5 relative activity to Rd7BB (SEQ ID NO: 44))”.

Reference: patent US11278600B2, “Human alpha-galactosidase variants” (Codexis, Inc., priority 2014, dated 2022)
